Source: IntAct's records for PubMed 22070932

B1: DAZ-associated protein 2 (Homo sapiens), Q15038 (parent)
chain: MNSKGQYPTQPTYPVQPPGNPVYPQTLHLPQAPPYTDAPPAYSELYRPSFVHPGAATVPTMSAAFPGASLYLPMAQSVAVGPLGSTIPMAYYPVGPIYPPGSTVLVEGGYDAGARFGAGATAGNIPPPPPGCPPNAAQLAVMQGANVLVTQRKGNFFMGGSDGGYTIW
B2: DAZ-associated protein 2 (Homo sapiens), Q15038 (parent)
chain: B1 chain
partner: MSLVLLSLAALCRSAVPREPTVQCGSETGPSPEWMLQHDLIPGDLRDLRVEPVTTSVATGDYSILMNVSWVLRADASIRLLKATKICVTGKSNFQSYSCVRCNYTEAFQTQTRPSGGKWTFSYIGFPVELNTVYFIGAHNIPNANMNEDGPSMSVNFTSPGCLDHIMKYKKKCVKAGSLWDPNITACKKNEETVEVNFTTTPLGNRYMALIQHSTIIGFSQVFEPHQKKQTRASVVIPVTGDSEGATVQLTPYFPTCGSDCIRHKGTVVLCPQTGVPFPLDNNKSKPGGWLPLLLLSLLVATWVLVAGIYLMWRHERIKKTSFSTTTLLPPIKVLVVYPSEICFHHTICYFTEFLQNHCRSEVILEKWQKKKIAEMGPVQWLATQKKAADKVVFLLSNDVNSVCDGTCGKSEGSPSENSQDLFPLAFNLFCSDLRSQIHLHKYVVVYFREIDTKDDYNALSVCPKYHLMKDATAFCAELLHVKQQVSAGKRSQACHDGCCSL

Variants of: B1
Settings: with smuf2_human SMURF2, Q9HAU4
smuf2_human SMURF2, Q9HAU4, sequence (Q9HAU4 whole entry): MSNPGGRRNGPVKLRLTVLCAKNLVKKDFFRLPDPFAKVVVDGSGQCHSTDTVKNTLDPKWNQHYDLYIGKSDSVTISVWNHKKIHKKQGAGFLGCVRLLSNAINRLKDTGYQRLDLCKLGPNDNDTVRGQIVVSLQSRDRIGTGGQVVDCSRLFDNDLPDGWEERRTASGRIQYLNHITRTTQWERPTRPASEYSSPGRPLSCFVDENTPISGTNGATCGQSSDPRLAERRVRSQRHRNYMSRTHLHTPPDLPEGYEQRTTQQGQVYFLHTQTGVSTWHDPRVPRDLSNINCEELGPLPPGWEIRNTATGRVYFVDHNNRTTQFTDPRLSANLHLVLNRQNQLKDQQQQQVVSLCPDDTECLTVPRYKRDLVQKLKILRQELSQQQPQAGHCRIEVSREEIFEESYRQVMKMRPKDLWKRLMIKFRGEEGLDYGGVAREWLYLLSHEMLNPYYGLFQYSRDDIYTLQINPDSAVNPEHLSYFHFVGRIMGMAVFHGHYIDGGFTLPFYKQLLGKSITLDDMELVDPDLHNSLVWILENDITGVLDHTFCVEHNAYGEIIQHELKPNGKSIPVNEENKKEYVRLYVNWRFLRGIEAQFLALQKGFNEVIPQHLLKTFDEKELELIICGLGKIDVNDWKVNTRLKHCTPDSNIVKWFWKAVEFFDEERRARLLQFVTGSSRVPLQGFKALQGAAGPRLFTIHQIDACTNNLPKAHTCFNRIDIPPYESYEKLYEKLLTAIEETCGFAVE

| effect of a mutation on the interaction | Variant |
| --- | --- |
| disrupting interaction strength | Y42A |

Variants of: B2
Settings: with IL17RB

| effect of a mutation on the interaction | Variant |
| --- | --- |
| decreasing interaction strength | Y42A |
| disrupting interaction strength | Y42A;Y165A |
| decreasing interaction strength | Y165A |
